Data as given in patent publication US20120135923A1, “Use of Melanocortins to Treat Dyslipidemia” (IPSEN PHARMA, S.A.S., priority 2009, published 2012).
Bridge positions count the residues as written; N and C are the ends. Square brackets hold non-standard residues; d marks the D form. Ends that are not written are not given here. Bip = N[C@@H](Cc1ccc(-c2ccccc2)cc1)C(=O)O; 2Nal = N[C@@H](Cc1ccc2ccccc2c1)C(=O)O; d2Nal = N[C@H](Cc1ccc2ccccc2c1)C(=O)O; Bta = N[C@@H](Cc1csc2ccccc12)C(=O)O; hArg = N=C(N)NCCCC[C@H](N)C(=O)O; Pen = CC(C)(S)[C@H](N)C(=O)O; Nle = CCCC[C@H](N)C(=O)O; Aib = CC(C)(N)C(=O)O; Ava = NCCCCC(=O)O; GABA = NCCCC(=O)O; βAla = NCCC(=O)O

B1: D-Phe-c(Cys-His-D-(Et)Tyr-hArg-Trp-β-Ala-D-Cys)-Thr-NH2 (peptide)
peptide: [dF]CH[d(Et)Tyr][hArg]W[βAla][dC]T-NH2
modifications: disulfide 2-8
B2: Ac-Nle-c(Cys-D-Leu-His-D-Phe-Arg-Trp-Cys)-NH2 (peptide)
peptide: Ac-[Nle]C[dL]H[dF]RWC-NH2
modifications: disulfide 2-8
SMILES: CCCC[C@H](NC(C)=O)C(=O)N[C@H]1CSSC[C@@H](C(N)=O)NC(=O)[C@H](Cc2c[nH]c3ccccc23)NC(=O)[C@H](CCCNC(=N)N)NC(=O)[C@@H](Cc2ccccc2)NC(=O)[C@H](Cc2c[nH]cn2)NC(=O)[C@@H](CC(C)C)NC1=O
B3: Ac-Nle-c(Asp-D-Ala-His-D-Phe-Arg-Bal-Lys)-NH2 (peptide)
peptide: Ac-[Nle]D[dA]H[dF]R[Bta]K-NH2
modifications: lactam 2-8
SMILES: CCCC[C@H](NC(C)=O)C(=O)N[C@H]1CC(=O)NCCCC[C@@H](C(N)=O)NC(=O)[C@H](Cc2csc3ccccc23)NC(=O)[C@H](CCCNC(=N)N)NC(=O)[C@@H](Cc2ccccc2)NC(=O)[C@H](Cc2c[nH]cn2)NC(=O)[C@@H](C)NC1=O
B4: Hydantoin(C(O)-(Arg-Gly))-c(Cys-D-Ala-His-D-2-Nal-Arg-Trp-Cys)-NH2 (peptide)
peptide: RGCAHXRWC
modifications: residues 1-2 joined in a hydantoin ring (C(O)); D-Ala4; X6=D-2-Nal; Cys3-Cys9 disulfide; C-terminal amide
B5: c[Hydantoin(C(O)-(Gly-Cys))-Glu-His-D-Phe-Arg-Trp-Cys]-NH2 (peptide)
peptide: GCEH[dF]RWC-NH2
modifications: disulfide 2-8; also: residues 1-2 joined in a hydantoin ring (C(O))
B6: Ac-D-Arg-c(Cys-His-D-Phe-Arg-Trp-Gaba-Pen)-NH2 (peptide)
peptide: Ac-[dR]CH[dF]RW[GABA][Pen]-NH2
modifications: disulfide 2-8
SMILES: CC(=O)N[C@H](CCCNC(=N)N)C(=O)N[C@H]1CSSC(C)(C)[C@@H](C(N)=O)NC(=O)CCCNC(=O)[C@H](Cc2c[nH]c3ccccc23)NC(=O)[C@H](CCCNC(=N)N)NC(=O)[C@@H](Cc2ccccc2)NC(=O)[C@H](Cc2c[nH]cn2)NC1=O
B7: Ac-c(Cys-Glu-His-D-2-Nal-Arg-2-Nal-Ala-Cys)-Pro-Pro-Lys-Asp-β-Ala-Tyr-Gly-Arg-Lys-Lys-Arg-Arg-Gln-Arg-Arg-Arg-NH2 (peptide)
peptide: CEHXRXACPPKDXYGRKKRRQRRR
modifications: N-terminal acetyl; X4=D-2-Nal; X6=2-Nal; X13=β-Ala; Cys1-Cys8 disulfide; C-terminal amide
B8: Ac-c(Cys-Glu-His-D-2-Nal-Arg-Trp-Ala-Cys)-Pro-Pro-Lys-Asp-NH2 (peptide)
peptide: Ac-CEH[d2Nal]RWACPPKD-NH2
modifications: disulfide 1-8
SMILES: CC(=O)N[C@H]1CSSC[C@@H](C(=O)N2CCC[C@H]2C(=O)N2CCC[C@H]2C(=O)N[C@@H](CCCCN)C(=O)N[C@@H](CC(=O)O)C(N)=O)NC(=O)[C@H](C)NC(=O)[C@H](Cc2c[nH]c3ccccc23)NC(=O)[C@H](CCCNC(=N)N)NC(=O)[C@@H](Cc2ccc3ccccc3c2)NC(=O)[C@H](Cc2c[nH]cn2)NC(=O)[C@H](CCC(=O)O)NC1=O
B9: D-Phe-c(Cys-His-D-(Et)Tyr-hArg-Bip-β-Ala-D-Cys)-Thr-NH2 (peptide)
peptide: [dF]CH[d(Et)Tyr][hArg][Bip][βAla][dC]T-NH2
modifications: disulfide 2-8
B10: c[Hydantoin(C(O)-(Ile-Cys))-D-Ala-His-D-Phe-Arg-Trp-Cys]-NH2 (peptide)
peptide: IC[dA]H[dF]RWC-NH2
modifications: disulfide 2-8; also: hydantoin ring from C(O) with Ile1-Cys2
B11: Ac-c(Cys-Glu-His-D-2-Nal-Arg-1-Nal-Ala-Cys)-Pro-Pro-Lys-Asp-β-Ala-Tyr-Gly-Arg-Lys-Lys-Arg-Arg-Gln-Arg-Arg-Arg-NH2 (peptide)
peptide: CEHXRXACPPKDXYGRKKRRQRRR
modifications: N-terminal acetyl; X4=D-2-Nal; X6=1-Nal; X13=β-Ala; Cys1-Cys8 disulfide; C-terminal amide
B12: Nle-c(Cys-His-D-Phe-Arg-Trp-Gaba-Cys)-NH2 (peptide)
peptide: [Nle]CH[dF]RW[GABA]C-NH2
modifications: disulfide 2-8
B13: Ac-c(Cys-Glu-His-D-2-Nal-Arg-Bal-Ala-Cys)-Pro-Pro-Lys-Asp-β-Ala-Tyr-Gly-Arg-Lys-Lys-Arg-Arg-Gln-Arg-Arg-Arg-NH2 (peptide)
peptide: CEHXRXACPPKDXYGRKKRRQRRR
modifications: N-terminal acetyl; X4=D-2-Nal; X6=Bal; X13=β-Ala; Cys1-Cys8 disulfide; C-terminal amide
B14: D-Phe-c(Cys-His-D-(Et)Tyr-Arg-Trp-β-Ala-D-Cys)-Thr-NH2 (peptide)
peptide: [dF]CH[d(Et)Tyr]RW[βAla][dC]T-NH2
modifications: disulfide 2-8
B15: D-Phe-c(Cys-His-D-Phe-hArg-Trp-β-Ala-D-Cys)-Thr-NH2 (peptide)
peptide: [dF]CH[dF][hArg]W[βAla][dC]T-NH2
modifications: disulfide 2-8; N-terminus assumed
SMILES: C[C@@H](O)[C@H](NC(=O)[C@H]1CSSC[C@H](NC(=O)[C@H](N)Cc2ccccc2)C(=O)N[C@@H](Cc2c[nH]cn2)C(=O)N[C@H](Cc2ccccc2)C(=O)N[C@@H](CCCCNC(=N)N)C(=O)N[C@@H](Cc2c[nH]c3ccccc23)C(=O)NCCC(=O)N1)C(N)=O
B16: Nle-c(Cys-His-D-Phe-Arg-Trp-Apn-Cys)-NH2 (peptide)
peptide: [Nle]CH[dF]RW[Ava]C-NH2
modifications: disulfide 2-8; N-terminus assumed
SMILES: CCCC[C@H](N)C(=O)N[C@H]1CSSC[C@@H](C(N)=O)NC(=O)CCCCNC(=O)[C@H](Cc2c[nH]c3ccccc23)NC(=O)[C@H](CCCNC(=N)N)NC(=O)[C@@H](Cc2ccccc2)NC(=O)[C@H](Cc2c[nH]cn2)NC1=O
B17: Ac-c(Cys-Glu-His-D-2-Nal-Arg-2-Nal-Aib-Cys)-Pro-Pro-Lys-Asp-NH2 (peptide)
peptide: Ac-CEH[d2Nal]R[2Nal][Aib]CPPKD-NH2
modifications: disulfide 1-8
SMILES: CC(=O)N[C@H]1CSSC[C@@H](C(=O)N2CCC[C@H]2C(=O)N2CCC[C@H]2C(=O)N[C@@H](CCCCN)C(=O)N[C@@H](CC(=O)O)C(N)=O)NC(=O)C(C)(C)NC(=O)[C@H](Cc2ccc3ccccc3c2)NC(=O)[C@H](CCCNC(=N)N)NC(=O)[C@@H](Cc2ccc3ccccc3c2)NC(=O)[C@H](Cc2c[nH]cn2)NC(=O)[C@H](CCC(=O)O)NC1=O
B18: Ac-c(Cys-Glu-His-D-2-Nal-Arg-Bal-Ala-Cys)-Pro-Pro-Lys-Asp-β-Ala-Tyr-Aib-Arg-Lys-Lys-Arg-Arg-Gln-Arg-Arg-Arg-NH2 (peptide)
peptide: Ac-CEH[d2Nal]R[Bta]ACPPKD[βAla]Y[Aib]RKKRRQRRR-NH2
modifications: disulfide 1-8
SMILES: CC(=O)N[C@H]1CSSC[C@@H](C(=O)N2CCC[C@H]2C(=O)N2CCC[C@H]2C(=O)N[C@@H](CCCCN)C(=O)N[C@@H](CC(=O)O)C(=O)NCCC(=O)N[C@@H](Cc2ccc(O)cc2)C(=O)NC(C)(C)C(=O)N[C@@H](CCCNC(=N)N)C(=O)N[C@@H](CCCCN)C(=O)N[C@@H](CCCCN)C(=O)N[C@@H](CCCNC(=N)N)C(=O)N[C@@H](CCCNC(=N)N)C(=O)N[C@@H](CCC(N)=O)C(=O)N[C@@H](CCCNC(=N)N)C(=O)N[C@@H](CCCNC(=N)N)C(=O)N[C@@H](CCCNC(=N)N)C(N)=O)NC(=O)[C@H](C)NC(=O)[C@H](Cc2csc3ccccc23)NC(=O)[C@H](CCCNC(=N)N)NC(=O)[C@@H](Cc2ccc3ccccc3c2)NC(=O)[C@H](Cc2c[nH]cn2)NC(=O)[C@H](CCC(=O)O)NC1=O
B19: Ac-Nle-c(Cys-His-D-Phe-Arg-Trp-Apn-Cys)-NH2 (peptide)
peptide: Ac-[Nle]CH[dF]RW[Ava]C-NH2
modifications: disulfide 2-8
SMILES: CCCC[C@H](NC(C)=O)C(=O)N[C@H]1CSSC[C@@H](C(N)=O)NC(=O)CCCCNC(=O)[C@H](Cc2c[nH]c3ccccc23)NC(=O)[C@H](CCCNC(=N)N)NC(=O)[C@@H](Cc2ccccc2)NC(=O)[C@H](Cc2c[nH]cn2)NC1=O
B20: Ac-Nle-c(Cys-D-Ala-His-D-Phe-Arg-Trp-Cys)-(Doc)2-Tyr-Gly-Arg-Lys-Lys-Arg-Arg-Gln-Arg-Arg-Arg-NH2 (peptide)
peptide: XCAHFRWCXXYGRKKRRQRRR
modifications: N-terminal acetyl; X1=Nle; D-Ala3; D-Phe5; X9=Doc; X10=Doc; Cys2-Cys8 disulfide; C-terminal amide
B21: Ac-Nle-c(Cys-His-D-Phe-Arg-Trp-Gaba-Pen)-NH2 (peptide)
peptide: Ac-[Nle]CH[dF]RW[GABA][Pen]-NH2
modifications: disulfide 2-8
B22: Ac-Arg-c(Cys-His-D-Phe-Arg-Trp-Gaba-Pen)-NH2 (peptide)
peptide: Ac-RCH[dF]RW[GABA][Pen]-NH2
modifications: disulfide 2-8
SMILES: CC(=O)N[C@@H](CCCNC(=N)N)C(=O)N[C@H]1CSSC(C)(C)[C@@H](C(N)=O)NC(=O)CCCNC(=O)[C@H](Cc2c[nH]c3ccccc23)NC(=O)[C@H](CCCNC(=N)N)NC(=O)[C@@H](Cc2ccccc2)NC(=O)[C@H](Cc2c[nH]cn2)NC1=O
B23: Ac-Tyr-Arg-c(Cys-D-Ala-His-D-Phe-Arg-Trp-Cys)-NH2 (peptide)
peptide: Ac-YRC[dA]H[dF]RWC-NH2
modifications: disulfide 3-9

Assays:
[1] = molecular target: hMC3-R (human) (UniProt P41968); assay: cell-based or functional assay
Sequence of hMC3-R (human) (P41968 whole entry): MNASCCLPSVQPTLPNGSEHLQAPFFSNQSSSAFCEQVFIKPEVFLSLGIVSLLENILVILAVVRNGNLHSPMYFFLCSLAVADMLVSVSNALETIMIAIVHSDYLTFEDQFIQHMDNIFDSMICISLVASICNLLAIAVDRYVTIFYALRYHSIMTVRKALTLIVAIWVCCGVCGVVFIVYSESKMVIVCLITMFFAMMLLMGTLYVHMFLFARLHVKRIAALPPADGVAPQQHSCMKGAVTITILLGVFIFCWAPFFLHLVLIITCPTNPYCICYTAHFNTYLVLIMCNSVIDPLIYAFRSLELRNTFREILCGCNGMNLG

[2] = molecular target: hMC4-R (human) (UniProt P32245); assay: cell-based or functional assay
Sequence of hMC4-R (human) (P32245 whole entry): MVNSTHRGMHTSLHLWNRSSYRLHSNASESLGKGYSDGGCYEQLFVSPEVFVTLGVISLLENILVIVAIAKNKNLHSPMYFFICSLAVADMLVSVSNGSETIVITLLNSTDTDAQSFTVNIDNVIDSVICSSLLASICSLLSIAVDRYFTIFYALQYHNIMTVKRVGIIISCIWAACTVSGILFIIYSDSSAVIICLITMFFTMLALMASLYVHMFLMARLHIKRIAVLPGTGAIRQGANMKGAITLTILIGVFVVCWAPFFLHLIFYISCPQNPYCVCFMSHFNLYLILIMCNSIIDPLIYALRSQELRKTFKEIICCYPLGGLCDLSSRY

[3] = molecular target: hMC1-R (human) (UniProt Q01726); assay: cell-based or functional assay
Sequence of hMC1-R (human) (Q01726 whole entry): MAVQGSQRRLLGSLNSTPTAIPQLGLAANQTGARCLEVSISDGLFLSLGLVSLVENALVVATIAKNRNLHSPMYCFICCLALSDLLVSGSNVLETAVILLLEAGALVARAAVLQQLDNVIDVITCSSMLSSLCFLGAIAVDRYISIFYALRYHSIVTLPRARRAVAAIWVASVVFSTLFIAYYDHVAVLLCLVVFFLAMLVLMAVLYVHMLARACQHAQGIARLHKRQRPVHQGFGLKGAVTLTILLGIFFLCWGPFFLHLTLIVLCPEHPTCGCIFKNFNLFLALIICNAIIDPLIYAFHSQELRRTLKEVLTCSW

[4] = molecular target: hMC5-R (human) (UniProt P33032); assay: cell-based or functional assay
Sequence of hMC5-R (human) (P33032 whole entry): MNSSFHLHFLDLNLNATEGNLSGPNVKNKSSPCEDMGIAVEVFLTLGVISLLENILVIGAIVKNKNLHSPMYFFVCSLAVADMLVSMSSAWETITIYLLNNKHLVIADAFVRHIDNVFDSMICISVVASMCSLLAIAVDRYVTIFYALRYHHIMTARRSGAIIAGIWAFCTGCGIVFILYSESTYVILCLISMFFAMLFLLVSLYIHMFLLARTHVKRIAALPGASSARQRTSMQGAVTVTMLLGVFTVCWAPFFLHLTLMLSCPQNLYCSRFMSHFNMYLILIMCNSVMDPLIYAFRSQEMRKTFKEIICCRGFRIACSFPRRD

[5] = molecular target: human melanocortin receptor subtype 1 (hMC1-R) (human), Q01726; assay: [125I]-NDP-α-MSH competition, membranes
Sequence of human melanocortin receptor subtype 1 (hMC1-R) (human), Q01726 (Q01726 whole entry): as the sequence (Q01726 whole entry) above

[6] = molecular target: human melanocortin receptor subtype 4 (hMC4-R) (human), P32245; assay: [125I]-NDP-α-MSH competition, membranes
Sequence of human melanocortin receptor subtype 4 (hMC4-R) (human), P32245 (P32245 whole entry): as the sequence (P32245 whole entry) above

[7] = molecular target: hMC3-R (human) (UniProt P41968); assay: competition with [125I]-NDP-α-MSH, CHO-K1 membranes
[8] = molecular target: hMC4-R (human) (UniProt P32245); assay: as above
[9] = molecular target: hMC1-R (human) (UniProt Q01726); assay: as above
[10] = molecular target: hMC5-R (human) (UniProt P33032); assay: as above
[11] = molecular target: hMC1-R (human) (UniProt Q01726); assay: ratio Ki hMC1-R / Ki hMC4-R, same assay
[12] = molecular target: human melanocortin receptor subtype 5 (hMC5-R) (human), P33032; assay: [125I]-NDP-α-MSH competition, membranes
Sequence of human melanocortin receptor subtype 5 (hMC5-R) (human), P33032 (P33032 whole entry): as the sequence (P33032 whole entry) above

Binder	cAMP EC50 [1] [nM]	cAMP EC50 [2] [nM]	cAMP EC50 [3]	cAMP EC50 [4] [nM]	other results
B1	2.71	5380	0.345 nM	2.38	–
B2	0.465	0.0915	3.24 nM	78.5	–
B3	3.22	1.65	0.931 nM	> 10000	–
B4	13.1	21.2	96.6 nM	103	–
B5	21.8	0.576	14.5 nM	1780	–
B6	32.4	0.959	8.43 nM	2140	–
B7	–	–	29.7	82.9	cAMP Kb [1]: 25.6; cAMP Kb [2]: 7.37
B8	–	–	66.1	6.84	cAMP Kb [1]: 33.4; cAMP Kb [2]: 0.687
B9	81.8	86.9	0.685 nM	31.8	–
B10	–	–	–	–	Ki [5]: 53.4 nM; Ki [6]: 41.6 nM
B11	–	–	43.3	1290	cAMP Kb [1]: 215; cAMP Kb [2]: 5.87
B12	0.1	0.021	0.37 nM	1.7	–
B13	–	–	37.9	1800	cAMP Kb [1]: 112; cAMP Kb [2]: 41.1
B14	1.1	0.11	0.35 nM	0.37	–
B15	–	–	–	–	Ki [7]: 123 nM; Ki [8]: 10.3 nM; Ki [9]: 0.442 nM; Ki [10]: 521 nM; Ki hMC1-R/MC4-R [11]: 0.04
B16	0.27	0.018	0.31 nM	3.1	–
B17	–	–	770	869	cAMP Kb [1]: 221; cAMP Kb [2]: 4.52
B18	–	–	67.1	582	cAMP Kb [1]: 439; cAMP Kb [2]: 46.5
B19	0.199	0.0492	0.76 nM	1.73	–
B20	–	–	4.7	147	–
B21	0.24	0.028	0.28 nM	3.9	–
B22	8.09	0.719	4.23 nM	23.2	–
B23	–	–	–	–	Ki [12]: 714 nM
